Drawing on PMC11825280, this text covers binding AUC for one substance.

This assay addresses rVSV-EBOV/Mayinga GP (EBOV/H.sap-tc/COD/76/Yambuku-Mayinga), thermolysin-cleaved (Ebola virus (EBOV)) (UniProt Q05320). The assay is described as follows: ELISA. For orientation: An ELISA detects its analyte on a solid surface through an enzyme-linked reagent.

Sequence of rVSV-EBOV/Mayinga GP (EBOV/H.sap-tc/COD/76/Yambuku-Mayinga), thermolysin-cleaved (Ebola virus (EBOV)) (Q05320 33-676): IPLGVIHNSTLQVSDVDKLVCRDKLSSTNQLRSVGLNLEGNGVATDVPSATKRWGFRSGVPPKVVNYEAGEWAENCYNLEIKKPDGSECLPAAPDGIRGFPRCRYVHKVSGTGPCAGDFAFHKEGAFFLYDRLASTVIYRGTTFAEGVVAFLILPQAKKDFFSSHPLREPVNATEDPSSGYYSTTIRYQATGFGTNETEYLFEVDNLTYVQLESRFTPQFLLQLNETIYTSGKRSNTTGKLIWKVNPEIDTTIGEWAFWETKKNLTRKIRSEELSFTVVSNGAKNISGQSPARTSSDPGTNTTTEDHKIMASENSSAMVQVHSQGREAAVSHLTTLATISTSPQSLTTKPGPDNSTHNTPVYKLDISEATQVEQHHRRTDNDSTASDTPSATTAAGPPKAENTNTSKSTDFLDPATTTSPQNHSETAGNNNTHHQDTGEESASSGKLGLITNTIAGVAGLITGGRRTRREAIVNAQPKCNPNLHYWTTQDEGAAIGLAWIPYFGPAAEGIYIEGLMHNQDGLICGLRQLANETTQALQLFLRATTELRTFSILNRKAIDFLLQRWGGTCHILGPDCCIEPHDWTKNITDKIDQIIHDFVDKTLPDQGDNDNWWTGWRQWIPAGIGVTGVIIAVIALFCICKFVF

The substance “soluble human NPC1 domain C (NPC1-C) (from UniProt O15118 23-1278) (domain or fragment)” registered a binding AUC of 277.
